B1: GAGE1 (parent)
chain: RPRRYVQPPEMIGPMRPEQFSDEV
B2: WSB1 (parent)
chain: DLKDDGNMMKVLRGHQNWVYSCAF

Variants of: B1
Test: protein stability index of a GFP-peptide fusion (GPS, HEK-293T) (PSI 1-6); higher = more stable
Conditions: c terminus: a fixed tail appended
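Further: lentivirally expressed fusions sorted by FACS into six bins by GFP to DsRed ratio, PSI derived from sequencing read proportions per bin multiplied by bin number.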

Variant | protein stability index
G13L | 3.71
G13K | 3.72
G13S | 4.09
G13E | 3.95
G13Q | 4.54
G13F | 3.8
G13W | 3.56
G13I | 3.25
G13A | 4.21
G13R | 4.19
G13N | 4.33
G13C | 3.96
G13Y | 3.85
G13M | 4.14
G13H | 4.07
G13T | 4.33
G13V | 4.05
G13P | 4.68
G13D | 4.63
R3I | 4.23
R3T | 4.3
R3D | 4.28
R3S | 4.26
R3V | 4.03
R3N | 4.07

Variant | protein stability index
R3Q | 4.11
R3P | 4.04
R3M | 3.89
R3F | 2.21
R3L | 2.88
R3Y | 3.1
R3H | 3.83
R3E | 4.51
R3W | 2.6
R3G | 3.96
R3C | 3.1
R3A | 3.74
R3K | 4.02
P8I | 3.27
P8H | 4.18
P8S | 4.36
P8T | 4.12
P8D | 4.31
P8V | 3.5
P8Y | 3.52
P8C | 3.61
P8G | 4.51
P8F | 3.41
P8L | 3.31
P8M | 3.48

Variant | protein stability index
P8W | 3.09
P8R | 3.93
P8K | 3.98
P8N | 4.22
P8A | 3.71
P8Q | 3.37
P8E | 4.54
M11W | 3.91
M11L | 3.4
M11P | 4.53
M11S | 3.54
M11R | 4.22
M11V | 3.46
M11K | 4.15
M11H | 4.37
M11N | 3.38
M11Q | 3.84
M11G | 4.44
M11A | 4.34
M11F | 4.05
M11D | 3.53
M11T | 3.74
M11I | 3.38
M11Y | 3.82
M11C | 3.56

Variant | protein stability index
M11E | 3.88
P2K | 3.24
P2T | 3.33
P2F | 2.81
P2S | 3.92
P2Q | 3.45
P2E | 4.12
P2C | 2.99
P2G | 3.59
P2M | 3.24
P2W | 2.14
P2H | 3.61
P2I | 2.5
P2A | 3.59
P2L | 2.99
P2N | 3.51
P2D | 3.98
P2V | 3.5
P2Y | 2.21
P2R | 4.1
Y5V | 4.41
Y5D | 4.22
Y5G | 4.49
Y5H | 3.81
Y5S | 4

Variant | protein stability index
Y5T | 4.45
Y5A | 4.38
Y5W | 3.61
Y5C | 3.2
Y5F | 3.78
Y5L | 3.31
Y5K | 4.43
Y5Q | 4.2
Y5R | 3.91
Y5E | 4.55
Y5M | 3.47
Y5N | 4.17
Y5P | 4.32
Y5I | 3.31
R16H | 4.29
R16G | 4.17
R16I | 4.44
R16N | 4.31
R16C | 3.84
R16D | 3.84
R16P | 4.35
R16M | 3.88
R16E | 4.3
R16F | 3.8
R16K | 3.94

Variant | protein stability index
R16A | 4.31
R16L | 3.5
Q7H | 4.14
Q7E | 3.86
Q7I | 3.63
Q7K | 4.02
Q7W | 3.73
Q7S | 4.24
Q7Y | 3.73
Q7D | 3.8
Q7F | 3.87
Q7T | 4.01
Q7N | 3.64
Q7C | 4.04
Q7G | 3.3
Q7P | 3.96
Q7R | 3.29
Q7L | 3.85
Q7V | 3.57
Q7A | 3.77
Q7M | 3.52
E10C | 3.13
E10R | 4.39
E10A | 4.15
E10Y | 3.18

Variant | protein stability index
E10Q | 3.69
E10L | 3.39
E10I | 3.69
E10F | 3.88
E10T | 4.33
E10W | 3.56
E10V | 3.99
E10H | 4.32
E10N | 3.97
E10K | 4.48
E10D | 4.51
E10S | 4.08
E10M | 4
E10G | 4.16
E10P | 4.25
V6D | 4.34
V6G | 4.18
V6N | 3.9
V6H | 3.69
V6M | 3.59
V6T | 3.66
V6L | 3.69
V6F | 3.39
V6R | 3.6
V6S | 4.17

Variant | protein stability index
V6Y | 3.01
V6A | 3.3
V6I | 3.94
V6P | 4.06
V6W | 3.18
V6Q | 3.59
V6C | 3.63
V6K | 3.83
V6E | 3.92
P14L | 3.48
P14A | 4.38
P14R | 4.31
P14W | 3.58
P14E | 4.41
P14K | 3.71
P14Y | 4.26
P14D | 4.54
P14T | 4.44
P14S | 4.13
P14G | 3.97
P14I | 4.13
P14N | 4.2
P14M | 3.6
P14H | 4.31
P14Q | 4.23

Variant | protein stability index
P14V | 4.2
P14C | 3.68
P14F | 3.54
R1F | 3.24
R1A | 3.63
R1I | 3.7
R1V | 3.59
R1Y | 3.29
R1Q | 4.23
R1S | 3.73
R1H | 3.94
R1D | 4.33
R1E | 4.23
R1C | 4.07
R1P | 3.8
R1T | 4.01
R1N | 3.93
R1W | 2.74
R1M | 3.98
R1L | 3.96
R1K | 3.96
R1G | 3.85
R4A | 3.94
R4D | 4.46
R4H | 3.43

Variant | protein stability index
R4C | 3.64
R4Y | 3.79
R4L | 4.04
R4W | 3.09
R4K | 3.69
R4F | 3.88
R4Q | 4.66
R4E | 3.92
R4V | 3.89
R4G | 4.12
R4M | 4.07
R4I | 3.43
R4T | 3.98
R4N | 3.72
R4P | 4.11
R4S | 4.05
P9Q | 4.52
P9H | 3.82
P9S | 4.29
P9F | 3.79
P9I | 3.57
P9K | 4.13
P9A | 3.75
P9G | 4.46
P9T | 4.28

Variant | protein stability index
P9L | 4
P9W | 3.77
P9N | 3.97
P9Y | 3.62
P9C | 4.24
P9V | 2.61
P9R | 4.36
P9D | 4.61
P9M | 3.92
P9E | 4.71
I12H | 4.3
I12F | 3.99
I12N | 4.71
I12V | 4.77
I12S | 4.36
I12T | 4.53
I12W | 3.84
I12D | 4.72
I12G | 4.69
I12K | 4.62
I12R | 4.35
I12M | 4.39
I12P | 4.31
I12E | 4.57
I12C | 4.33

Variant | protein stability index
I12Q | 4.62
I12Y | 3.91
I12L | 4.12
I12A | 4.42
M15R | 4.17
M15T | 4.72
M15N | 3.97
M15Y | 4
M15P | 4.31
M15H | 3.69
M15I | 4.12
M15L | 3.95
M15D | 4.75
M15Q | 4.58
M15V | 4.49
M15W | 3.49
M15E | 4.78
M15G | 4.7
M15F | 3.89
M15A | 4.21
M15S | 4.84
M15K | 4.48
M15C | 4.31

Variants of: B2
Test: as above
Conditions: c terminus: a fixed tail appended

Variant | protein stability index
F24L | 3.07
F24W | 4.14
F24G | 2.19
F24P | 2.95
F24C | 1.47
F24D | 3.3
F24H | 3.34
F24Q | 2.21
F24E | 1.82
F24T | 1.98
F24V | 2.97
F24A | 2.14
F24M | 2.27
F24N | 2.18
F24Y | 2.38
F24K | 2.34
F24S | 2.89
F24I | 2.28

Variant | protein stability index
F24R | 2.33
A23G | 1.73
A23T | 1.6
A23S | 2.94
A23H | 1.75
A23N | 2.22
A23Y | 2.29
A23F | 2.17
A23K | 1.31
A23M | 1.44
A23R | 2.36
A23V | 1.71
A23C | 2.5
A23I | 1.43
A23L | 1.22
A23P | 2.5
A23E | 2.24
C22Y | 1.72
